This note sets out measurements from IntAct's records for PubMed 29039417.

To fix the notation:
B1: BBSome complex member BBS2 (Homo sapiens), Q9BXC9 (parent)
chain: MLLPVFTLKLRHKISPRMVAIGRYDGTHPCLAAATQTGKVFIHNPHTRNQHVSASRVFQSPLESDVSLLSINQAVSCLTAGVLNPELGYDALLVGTQTNLLAYDVYNNSDLFYREVADGANAIVLGTLGDISSPLAIIGGNCALQGFNHEGSDLFWTVTGDNVNSLALCDFDGDGKKELLVGSEDFDIRVFKEDEIVAEMTETEIVTSLCPMYGSRFGYALSNGTVGVYDKTSRYWRIKSKNHAMSIHAFDLNSDGVNELITGWSNGKVDARSDRTGEVIFKDNFSSAIAGVVEGDYRMDGHIQLICCSVDGEIRGYLPGTAEMRGNLMDTSAEQDLIRELSQKKQNLLLELRNYEENAKAELASPLNEADGHRGIIPANTRLHTTLSVSLGNETQTAHTELRISTSNDTIIRAVLIFAEGIFTGESHVVHPSIHNLSSSICIPIVPPKDVPVDLHLKAFVGYRSSTQFHVFESTRQLPRFSMYALTSLDPASEPISYVNFTIAERAQRVVVWLGQNFLLPEDTHIQNAPFQVCFTSLRNGGHLHIKIKLSGEITINTDDIDLAGDIIQSMASFFAIEDLQVEADFPVYFEELRKVLVKVDEYHSVHQKLSADMADHSNLIRSLLVGAEDARLMRDMKTMKSRYMELYDLNRDLLNGYKIRCNNHTELLGNLKAVNQAIQRAGRLRVGKPKNQVITACRDAIRSNNINTLFKIMRVGTASS
partner: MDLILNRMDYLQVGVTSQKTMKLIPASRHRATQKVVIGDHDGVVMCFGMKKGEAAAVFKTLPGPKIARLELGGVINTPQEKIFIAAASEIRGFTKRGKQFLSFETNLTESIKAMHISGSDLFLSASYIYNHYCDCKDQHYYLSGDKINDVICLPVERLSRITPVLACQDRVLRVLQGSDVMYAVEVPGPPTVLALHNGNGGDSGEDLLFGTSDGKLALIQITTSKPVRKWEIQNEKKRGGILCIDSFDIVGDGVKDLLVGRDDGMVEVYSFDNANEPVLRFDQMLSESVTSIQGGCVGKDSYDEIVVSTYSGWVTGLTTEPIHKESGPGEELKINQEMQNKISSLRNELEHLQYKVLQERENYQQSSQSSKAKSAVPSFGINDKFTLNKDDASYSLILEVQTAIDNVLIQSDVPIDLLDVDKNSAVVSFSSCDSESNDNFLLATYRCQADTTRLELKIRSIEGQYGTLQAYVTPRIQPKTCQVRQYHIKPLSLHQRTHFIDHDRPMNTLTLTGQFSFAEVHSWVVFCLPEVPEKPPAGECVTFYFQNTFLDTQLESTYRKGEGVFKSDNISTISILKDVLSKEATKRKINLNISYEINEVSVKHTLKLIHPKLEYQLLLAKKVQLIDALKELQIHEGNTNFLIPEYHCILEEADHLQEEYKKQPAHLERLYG
B2: BBSome complex member BBS1 (Homo sapiens), Q8NFJ9 (parent)
chain: MAAASSSDSDACGAESNEANSKWLDAHYDPMANIHTFSACLALADLHGDGEYKLVVGDLGPGGQQPRLKVLKGPLVMTESPLPALPAAAATFLMEQHEPRTPALALASGPCVYVYKNLRPYFKFSLPQLPPNPLEQDLWNQAKEDRIDPLTLKEMLESIRETAEEPLSIQSLRFLQLELSEMEAFVNQHKSNSIKRQTVITTMTTLKKNLADEDAVSCLVLGTENKELLVLDPEAFTILAKMSLPSVPVFLEVSGQFDVEFRLAAACRNGNIYILRRDSKHPKYCIELSAQPVGLIRVHKVLVVGSTQDSLHGFTHKGKKLWTVQMPAAILTMNLLEQHSRGLQAVMAGLANGEVRIYRDKALLNVIHTPDAVTSLCFGRYGREDNTLIMTTRGGGLIIKILKRTAVFVEGGSEVGPPPAQAMKLNVPRKTRLYVDQTLREREAGTAMHRAFQTDLYLLRLRAARAYLQALESSLSPLSTTAREPLKLHAVVQGLGPTFKLTLHLQNTSTTRPVLGLLVCFLYNEALYSLPRAFFKVPLLVPGLNYPLETFVESLSNKGISDIIKVLVLREGQSAPLLSAHVNMPGSEGLAAA
partner: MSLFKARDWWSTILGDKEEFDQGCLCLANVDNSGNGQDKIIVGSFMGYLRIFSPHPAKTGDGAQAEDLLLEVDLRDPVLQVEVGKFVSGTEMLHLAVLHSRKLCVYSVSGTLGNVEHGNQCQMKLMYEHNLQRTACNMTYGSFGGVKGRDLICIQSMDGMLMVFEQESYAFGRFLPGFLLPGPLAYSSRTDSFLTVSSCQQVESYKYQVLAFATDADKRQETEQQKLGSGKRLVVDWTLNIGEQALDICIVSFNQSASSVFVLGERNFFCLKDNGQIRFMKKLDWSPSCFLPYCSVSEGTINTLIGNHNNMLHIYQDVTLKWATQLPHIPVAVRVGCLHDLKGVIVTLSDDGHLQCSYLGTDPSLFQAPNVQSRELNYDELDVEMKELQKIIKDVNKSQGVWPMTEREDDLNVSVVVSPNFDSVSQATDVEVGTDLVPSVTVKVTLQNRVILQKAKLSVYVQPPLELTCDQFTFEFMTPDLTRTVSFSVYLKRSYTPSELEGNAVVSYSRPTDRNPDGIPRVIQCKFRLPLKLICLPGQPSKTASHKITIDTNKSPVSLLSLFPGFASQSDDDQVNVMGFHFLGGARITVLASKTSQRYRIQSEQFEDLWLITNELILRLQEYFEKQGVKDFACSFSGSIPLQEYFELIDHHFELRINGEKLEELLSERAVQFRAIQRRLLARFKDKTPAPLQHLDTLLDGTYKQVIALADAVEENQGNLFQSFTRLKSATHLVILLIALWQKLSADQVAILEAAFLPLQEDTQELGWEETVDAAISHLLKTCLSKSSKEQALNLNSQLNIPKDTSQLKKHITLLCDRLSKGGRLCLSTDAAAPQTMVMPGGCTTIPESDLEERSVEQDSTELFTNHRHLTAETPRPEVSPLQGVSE

Variants of B1 are the subject of one assay. As to conditions: with BBS7, Q8IWZ6-2.
As for T558E, the “effect of a mutation on the interaction” value was “with no effect”.
Still for that read-out and setting: then L544K, with “disrupting interaction strength”; and N557E, with “with no effect”; and S427E, with “with no effect”.
On the same count and under the same terms, then N619E, with “with no effect”; and M329A, with “with no effect”; and G717A, with “with no effect”.
Same read-out and setting: for G717K the value was “with no effect”.
For W513G, the “effect of a mutation on the interaction” value is reported as “disrupting interaction strength”.
Same read-out and setting: then N651A, with “with no effect”.
Same read-out and setting: for C698E the value was “with no effect”.
Still for that read-out and setting: for S704A the value was “with no effect”; for E356A, “with no effect”.
Take F711K: the “effect of a mutation on the interaction” value is listed as “with no effect”.
For the variant F711A, the “effect of a mutation on the interaction” value is reported as “with no effect”.
Same read-out and setting: then I526A, with “with no effect”.
Same read-out and setting: for A701E the value was “with no effect”; for A701K, “with no effect”; for S440K, “with no effect”.
On to L550K, for which the “effect of a mutation on the interaction” value was “with no effect”.
On the same count and under the same terms, for T331E the value was “with no effect”; for R635K, “with no effect”; for G627A, “with no effect”.
On the same count and under the same terms, for L363A the value was “with no effect”.
On the same count and under the same terms, then G326A, with “with no effect”; and P448A, with “with no effect”; and P448E, with “with no effect”.
In the case of T410A, the “effect of a mutation on the interaction” value is “with no effect”.
The same measure, in the same setting: then G462A, with “with no effect”; and S720K, with “with no effect”; and A485S, with “disrupting interaction strength”.
On to Y644K, for which the “effect of a mutation on the interaction” value was “with no effect”.
On the same count and under the same terms, for Y644E the value was “disrupting interaction strength”; for P521E, “with no effect”; for E351K, “with no effect”.
The same measure, in the same setting: then F531K, with “with no effect”.
Regarding L672K, the “effect of a mutation on the interaction” value was “with no effect”.
Same read-out and setting: for L337K the value was “with no effect”.
Still for that read-out and setting: for P479A the value was “disrupting interaction strength”.
For T536K, the “effect of a mutation on the interaction” value is on record as “with no effect”.
Still for that read-out and setting: for T536E the value was “with no effect”; for L478K, “disrupting interaction strength”; for L478E, “with no effect”.
Still for that read-out and setting: for S488E the value was “with no effect”; for I411E, “with no effect”.
In the case of I411K, the “effect of a mutation on the interaction” value was “with no effect”.
Same read-out and setting: for D649E the value was “with no effect”; for I621K, “with no effect”.
Same read-out and setting: then E583K, with “with no effect”; and L489K, with “with no effect”.
With L489A, the “effect of a mutation on the interaction” value is “with no effect”.
On the same count and under the same terms, for R643K the value was “with no effect”; for R643E, “with no effect”; for R686K, “with no effect”.
The same measure, in the same setting: for G565K the value was “with no effect”.

Variants of B2 are the subject of another assay. As to conditions: with pthb1_human BBS9, Q3SYG4.
In the case of R512H, the “effect of a mutation on the interaction” value was “with no effect”.
On to L503H, for which the “effect of a mutation on the interaction” value is “disrupting interaction strength”.

In a further assay the parent is B2. As to conditions: with pthb1_human BBS9, Q3SYG4. This is another data set of the same source.
For the variant M584E, the “effect of a mutation on the interaction” value is listed as “with no effect”.
Consider M584K, for which the “effect of a mutation on the interaction” value is reported as “with no effect”.
For M584A, the “effect of a mutation on the interaction” value was “with no effect”.
Still for that read-out and setting: for E588A the value was “with no effect”; for E588K, “with no effect”.
Same read-out and setting: then A591K, with “with no effect”; and A591E, with “with no effect”.
Still for that read-out and setting: then A593K, with “with no effect”; and A593E, with “with no effect”; and S587K, with “with no effect”.
Regarding S587A, the “effect of a mutation on the interaction” value was “with no effect”.
On the same count and under the same terms, for S587E the value was “with no effect”; for A592E, “with no effect”; for A592K, “with no effect”.
Same read-out and setting: for G586K the value was “with no effect”; for G586E, “with no effect”; for G586A, “with no effect”.
In the case of G586R, the “effect of a mutation on the interaction” value is “disrupting interaction strength”.
Still for that read-out and setting: then V582K, with “with no effect”.
Same read-out and setting: for V582A the value was “with no effect”; for V582E, “with no effect”.
The same measure, in the same setting: for N583K the value was “with no effect”; for N583E, “with no effect”.
N583A: the “effect of a mutation on the interaction” value was “with no effect”.
As to P585A, the “effect of a mutation on the interaction” value is listed as “with no effect”.
Same read-out and setting: then P585K, with “with no effect”; and P585E, with “with no effect”; and G589A, with “with no effect”.
On the same count and under the same terms, then G589K, with “with no effect”; and G589E, with “with no effect”; and L590K, with “with no effect”.
As to L590A, the “effect of a mutation on the interaction” value is given as “with no effect”.
Still for that read-out and setting: for L590E the value was “with no effect”.
